Consider three molecules from publication PMC10781630, “Structural basis of Gabija anti-phage defence and viral immune evasion” (Nature, 2023).

Data set [1] deals with Bacillus cereus VD045 GajB, untagged, co-expressed with tagged GajA (Bacillus cereus VD045) (UniProt J8HQ06). In words: crystal structure; co-expressed and co-purified GajAB, 3.0 Å; hanging drop, 18 °C, 100 mM HEPES-NaOH pH 7.5, 2.4% PEG-400, 2.2 M ammonium sulfate.
For data set [2], the target named is T1, Bacillus cereus VD045 GajA, co-expressed with GajB, tag removed (subunit of the GajAB complex) (Bacillus cereus VD045, UniProt J8H9C1 2-578).
T1 construct: GajA, Bacillus cereus VD045, IMG ID 2519684552; the 5×GS linker may stay on GajA after SENP2 cleavage; also called BcGajA; source: E. coli BL21(DE3) strains, co-expressed with GajB, purified (Ni-NTA, SUMO2 cleavage by hSENP2, SEC); not shown: 6×His-SUMO2-5×GS, N-terminal, cleaved
T1 sequence: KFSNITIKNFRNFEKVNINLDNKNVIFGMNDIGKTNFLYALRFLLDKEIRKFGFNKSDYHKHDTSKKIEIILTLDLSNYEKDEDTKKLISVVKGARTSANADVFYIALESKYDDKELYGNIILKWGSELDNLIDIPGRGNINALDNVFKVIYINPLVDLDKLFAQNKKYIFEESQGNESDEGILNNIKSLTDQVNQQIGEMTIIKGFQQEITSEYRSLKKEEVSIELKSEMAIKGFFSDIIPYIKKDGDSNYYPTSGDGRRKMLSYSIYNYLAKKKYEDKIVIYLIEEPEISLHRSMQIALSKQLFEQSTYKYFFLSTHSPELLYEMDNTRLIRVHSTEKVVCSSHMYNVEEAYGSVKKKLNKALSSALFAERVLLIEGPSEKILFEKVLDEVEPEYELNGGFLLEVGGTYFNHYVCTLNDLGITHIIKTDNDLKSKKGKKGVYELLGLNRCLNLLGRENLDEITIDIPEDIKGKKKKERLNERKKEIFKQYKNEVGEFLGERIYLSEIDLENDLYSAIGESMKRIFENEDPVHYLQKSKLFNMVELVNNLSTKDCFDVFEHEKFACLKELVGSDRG
The description is as above. The following applies: both partners purified.

The next data set concerns the target T2, GajA E379A;GajB (Bacillus cereus VD045;Bacillus cereus …, UniProt J8H9C1;J8HQ06 1-578;1-494, E379A|).
T2 sequence 1: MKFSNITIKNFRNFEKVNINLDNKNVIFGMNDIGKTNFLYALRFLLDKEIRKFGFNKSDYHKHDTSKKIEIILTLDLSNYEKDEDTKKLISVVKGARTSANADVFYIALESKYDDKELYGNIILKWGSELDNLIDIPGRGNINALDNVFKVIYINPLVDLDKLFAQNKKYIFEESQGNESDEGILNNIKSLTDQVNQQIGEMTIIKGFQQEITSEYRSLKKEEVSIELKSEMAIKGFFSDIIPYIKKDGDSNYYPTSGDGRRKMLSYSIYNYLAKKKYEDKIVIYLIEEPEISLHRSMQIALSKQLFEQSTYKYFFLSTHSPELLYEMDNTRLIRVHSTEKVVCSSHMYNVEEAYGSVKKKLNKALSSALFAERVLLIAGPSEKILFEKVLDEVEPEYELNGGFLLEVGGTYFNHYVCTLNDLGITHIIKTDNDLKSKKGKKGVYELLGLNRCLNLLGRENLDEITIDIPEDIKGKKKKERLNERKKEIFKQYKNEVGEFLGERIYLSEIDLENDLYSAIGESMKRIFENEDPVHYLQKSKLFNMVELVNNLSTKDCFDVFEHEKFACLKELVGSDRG
T2 sequence 2: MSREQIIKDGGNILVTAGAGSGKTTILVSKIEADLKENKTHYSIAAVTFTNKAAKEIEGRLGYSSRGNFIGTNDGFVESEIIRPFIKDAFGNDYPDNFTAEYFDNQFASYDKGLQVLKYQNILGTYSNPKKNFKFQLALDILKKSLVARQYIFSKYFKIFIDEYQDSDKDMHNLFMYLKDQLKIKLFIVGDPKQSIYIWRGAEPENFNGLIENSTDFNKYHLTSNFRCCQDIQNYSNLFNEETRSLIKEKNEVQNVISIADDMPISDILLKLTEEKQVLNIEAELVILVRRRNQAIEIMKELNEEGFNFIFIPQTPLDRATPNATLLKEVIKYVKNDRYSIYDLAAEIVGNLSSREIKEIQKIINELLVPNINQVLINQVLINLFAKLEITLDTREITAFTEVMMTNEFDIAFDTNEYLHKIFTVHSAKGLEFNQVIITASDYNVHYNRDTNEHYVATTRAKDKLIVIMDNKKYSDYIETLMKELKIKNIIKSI
Nature of the data set: EMSA; 5 mM Ca2+. Particulars: protein: recombinant;recombinant; tags: N-terminal 6xHis-SUMO2-5xGS, cleaved by SENP2;none in co-expressed complex; chain copies: 4;4; label: none (ethidium bromide post-stain).

Data set [3] concerns the molecule itself. In words: SEC; 16/600 S200 (Superdex 200); recombinant BcGajA and BcGajB each run alone. Background: SEC sorts molecules by how far they enter the pores of the column.

B1: Bacillus cereus VD045 GajB, untagged, co-expressed with tagged GajA (enzyme)
chain: MSREQIIKDGGNILVTAGAGSGKTTILVSKIEADLKENKTHYSIAAVTFTNKAAKEIEGRLGYSSRGNFIGTNDGFVESEIIRPFIKDAFGNDYPDNFTAEYFDNQFASYDKGLQVLKYQNILGTYSNPKKNFKFQLALDILKKSLVARQYIFSKYFKIFIDEYQDSDKDMHNLFMYLKDQLKIKLFIVGDPKQSIYIWRGAEPENFNGLIENSTDFNKYHLTSNFRCCQDIQNYSNLFNEETRSLIKEKNEVQNVISIADDMPISDILLKLTEEKQVLNIEAELVILVRRRNQAIEIMKELNEEGFNFIFIPQTPLDRATPNATLLKEVIKYVKNDRYSIYDLAAEIVGNLSSREIKEIQKIINELLVPNINQVLINQVLINLFAKLEITLDTREITAFTEVMMTNEFDIAFDTNEYLHKIFTVHSAKGLEFNQVIITASDYNVHYNRDTNEHYVATTRAKDKLIVIMDNKKYSDYIETLMKELKIKNIIKSI
notes: GajB, Bacillus cereus VD045, IMG ID 2519684553; also called BcGajB; source: co-purified (Ni-NTA, SEC) or in lysate
With B1, the figures for the stoichiometry N in data set [1] and in data set [2] were 2 and 1 GajB per GajA (4:4), respectively.

B2: 56-bp scrambled dsDNA (dsDNA)
DNA 1: TTTTTTTTTTTTTTTTTGACATTACATTCAGTTTTTTTTTTTTTTTTTTTTTTTTT
DNA 2: AAAAAAAAAAAAAAAAAAAAAAAAACTGAATGTAATGTCAAAAAAAAAAAAAAAAA
Turning to B2, the binding result with GajA E379A;GajB is listed as “binds”.

B3: Bacillus cereus VD045 GajA (Gabija protein A), expressed alone (enzyme)
chain: KFSNITIKNFRNFEKVNINLDNKNVIFGMNDIGKTNFLYALRFLLDKEIRKFGFNKSDYHKHDTSKKIEIILTLDLSNYEKDEDTKKLISVVKGARTSANADVFYIALESKYDDKELYGNIILKWGSELDNLIDIPGRGNINALDNVFKVIYINPLVDLDKLFAQNKKYIFEESQGNESDEGILNNIKSLTDQVNQQIGEMTIIKGFQQEITSEYRSLKKEEVSIELKSEMAIKGFFSDIIPYIKKDGDSNYYPTSGDGRRKMLSYSIYNYLAKKKYEDKIVIYLIEEPEISLHRSMQIALSKQLFEQSTYKYFFLSTHSPELLYEMDNTRLIRVHSTEKVVCSSHMYNVEEAYGSVKKKLNKALSSALFAERVLLIEGPSEKILFEKVLDEVEPEYELNGGFLLEVGGTYFNHYVCTLNDLGITHIIKTDNDLKSKKGKKGVYELLGLNRCLNLLGRENLDEITIDIPEDIKGKKKKERLNERKKEIFKQYKNEVGEFLGERIYLSEIDLENDLYSAIGESMKRIFENEDPVHYLQKSKLFNMVELVNNLSTKDCFDVFEHEKFACLKELVGSDRG
notes: GajA, Bacillus cereus VD045, IMG ID 2519684552; gene codon-optimized and synthesized; the C-terminal 6×His construct is the only GajA-alone construct described; also called BcGajA; GajA alone; source: E. coli BL21(DE3) strains, purified (Ni-NTA, SEC); also co-expressed with Shewanella phage 1/4 Gad1, in lysate for Ni-NTA co-purification; not shown: 6×His, C-terminal, kept
On to B3, for which the “stoichiometry N” value in data set [3] was determined as 4.

Broadly, the stoichiometry N is a count of units in the complex or per binding partner.
